The results in this text go back to US20160193316A1 (priority 1994, published 2016).

In one experiment the target is T1, HLA-A*0301 (Homo sapiens, UniProt P04439).
T1 construct: endogenous in cells; host or cells: GM3107
The experiment in a line: HLA class I peptide binding assay. As to conditions: Malaria A3 motif peptides, Table XVI; binding value to HLA-A*0301, unit not given.

For a further experiment, the target named is T2, DRB1*0101 (DR1) (Homo sapiens, UniProt P01903+P01911, A100R/D57E/F55L/F60I/F76Y/I96L/L162R/M171V/P40L/Q125E/R42F/V115G/Y59C).
T2 construct: endogenous in cells; host or cells: LG2
T2 sequence (P01903 26-254 partner, other chains not shown): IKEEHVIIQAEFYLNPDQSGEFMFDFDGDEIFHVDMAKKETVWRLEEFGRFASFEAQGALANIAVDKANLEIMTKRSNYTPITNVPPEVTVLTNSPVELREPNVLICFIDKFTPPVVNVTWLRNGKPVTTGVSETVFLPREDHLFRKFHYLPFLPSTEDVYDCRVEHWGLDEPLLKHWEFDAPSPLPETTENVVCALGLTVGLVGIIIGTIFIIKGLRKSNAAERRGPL
The experiment in a line: HLA class II peptide binding assay. As to conditions: for DR1 binding data: Table XIXb, Malaria Super Motif Peptides With Binding Data; for DR1 binding information: unit not given.

The next experiment deals with T3, DRB1*0401 (DR4w4) (Homo sapiens, UniProt P01903+P01911, A100K/A169T/F76Y/I96L/K127E/L162R/M171V/N62H/P40V/Q125Y/R42H/S133A/S149N/S66Y/V115G/V209L/W38E).
T3 construct: endogenous in cells; host or cells: Preiss
T3 sequence (P01903 26-254 partner, other chains not shown): as above
The experiment in a line: HLA class II peptide binding assay. As to conditions: for DR4w4 binding data: Table XIXb; for DR4w4 binding information: unit not given.

In another experiment the target is T4, DRB1*0405 (DR4w15) (Homo sapiens, UniProt P01903+P01911, A100R/A169T/D86S/F76Y/I96L/K127E/L162R/M171V/N62H/P40V/Q125Y/R42H/S133A/S149N/S66Y/V115G/V209L/W38E).
T4 construct: endogenous in cells; host or cells: KT3
The experiment in a line: HLA class II peptide binding assay. As to conditions: for DR4w15 binding data: Table XIXb; for DR4w15 binding information: unit not given.

The target of another experiment is T5, DRB1*0701 (DR7) (Homo sapiens, UniProt P01903+P01911, A100R/A102G/A103Q/D57E/D86V/E43K/F76Y/K127E/L162R/M171V/P40G/Q125H/Q99D/R33Q/R42Y/R54Q/S133A/S66F/T210M/V115G/Y107V/Y59L/Y89S).
T5 construct: endogenous in cells; host or cells: Pitout
The experiment in a line: biochemical. It is filed as binding.

The next experiment has as its target T6, DRB1*0802 (DR8w2) (Homo sapiens, UniProt P01903+P01911, A100R/A103L/A169T/F76Y/H45Y/I96F/K41T/L162R/M171V/P40S/Q125H/Q178H/Q39Y/Q99D/R218S/R42G/S66Y/V115G/W38E).
T6 construct: endogenous in cells; host or cells: OLL
The experiment in a line: biochemical. In kind it is binding.

For a further experiment, the target named is T7, DRB1*1101 (DR5w11) (Homo sapiens, UniProt P01903+P01911, A100R/A169T/A87E/I96F/K41T/L162R/M171V/P40S/Q125H/Q178H/Q39Y/Q99D/R42S/S66Y/T262R/V115G/W38E).
T7 construct: endogenous in cells; host or cells: Sweig
T7 sequence (P01903 26-254, other chains not shown): as the sequence (P01903 26-254 partner, other chains not shown) above
The experiment in a line: biochemical. In kind it is binding.

The next experiment deals with T8, DRB1*1201 (DR5w12) (Homo sapiens, UniProt P01903+P01911, A100R/A169T/D57E/D86V/F55L/H45Y/K41T/L162R/M171V/P40S/Q125H/Q178H/Q39Y/Q99D/R42G/S66L/T262R/V114A/V67L/W38E/Y59H/Y61H/Y89S).
T8 construct: endogenous in cells; host or cells: Herluf
The experiment in a line: HLA class II peptide binding assay. As to conditions: for DR5w12 binding data: Table XIXb; for DR5w12 binding information: DR3a motif peptides, unit not given, exemplary 15-mer containing the core sequence.

Another experiment has as its target T9, DRB4*0101 (DRw53) (Homo sapiens, UniProt P01903+P13762, G164S).
T9 construct: expressed in transfected cells; host or cells: L257.6 (fibroblasts)
The experiment in a line: HLA class II peptide binding assay (pH 5.0). To be noted: for DRw53 binding data: Table XIXb; for DRw53 binding information: DR3a motif peptides, unit not given, exemplary 15-mer containing the core sequence.

The target in a further experiment is T10, DRB5*0101 (DR2w2β2) (Homo sapiens, UniProt P01903+Q30154).
T10 construct: expressed in transfected cells; host or cells: L416.3 (fibroblasts) or GM3107
It is filed as binding.

The target in the next experiment is T11, DRB1*0301 (DR3) (Homo sapiens, UniProt P01903+P01911, A100K/A102G/A103R/A169T/F55Y/I96L/K41T/L162R/M171V/P40S/Q125H/Q178H/Q39Y/R42S/S66N/T106N/T262R/W38E/Y61H).
T11 construct: endogenous in cells; host or cells: MAT
The experiment in a line: HLA class II peptide binding assay (pH 4.5). To be noted: unit not given.

The target of another experiment is T12, DRB1*1501 (DR2w2β1) (Homo sapiens, UniProt P01903+P01911).
T12 construct: expressed in transfected cells; host or cells: L466.1 (fibroblasts)
The experiment in a line: HLA class II peptide binding assay. To be noted: unit not given.

Where [1] appears, read: DR3a motif peptides, exemplary 15-mer containing the core sequence.

With IAGGLALLA, the “A*0301 (binding information)” value with HLA-A*0301 was determined as 0.0002. Besides, in the experiment with DRB1*0101 (DR1), the DR1 binding data is given as 0.0160. Further, the DR4w4 binding data with DRB1*0401 (DR4w4) stood at 0.0014. The DR4w15 binding data with DRB1*0405 (DR4w15) came to 0.0014. The sequence also gave a DR7 binding data in the experiment with DRB1*0701 (DR7) of -0.0003. In the experiment with DRB1*0802 (DR8w2), this sequence returned a DR8w2 binding data of 0.0004. The sequence further returned a DR5w11 binding data with DRB1*1101 (DR5w11) of -0.0002. Also, the DR5w12 binding data in the experiment with DRB1*1201 (DR5w12) amounted to 0.0007. Moreover, the DRw53 binding data in the experiment with DRB4*0101 (DRw53) was -0.0005. For the same sequence, the DR2w2β2 binding data in the experiment with DRB5*0101 (DR2w2β2) is 0.0013.
Regarding INRENANQL, the DR1 binding information in the experiment with DRB1*0101 (DR1) (setting [1]) amounted to 0.0770. For the same sequence, the DR3 binding information with DRB1*0301 (DR3) (setting [1]) turned out to be 0.0092. Also, in the experiment with DRB1*0401 (DR4w4) (setting [1]), the DR4w4 binding information is 0.0011. Also, the DR4w15 binding information in the experiment with DRB1*0405 (DR4w15) (setting [1]) is 0.0010. The DR7 binding information in the experiment with DRB1*0701 (DR7) is listed as -0.0003. The sequence further had a DR8w2 binding information with DRB1*0802 (DR8w2) of -0.0003. The same sequence yielded a DR5w11 binding information with DRB1*1101 (DR5w11) of -0.0004. The sequence also displayed a DR5w12 binding information with DRB1*1201 (DR5w12) of 0.0001. Also, the DRw53 binding information with DRB4*0101 (DRw53) was determined as 0.0096. This sequence gave a DR2w2β2 binding information with DRB5*0101 (DR2w2β2) of 0.0015.
With YLLMDCSGS, the DR1 binding data with DRB1*0101 (DR1) was 0.0015. The same sequence had a DR4w4 binding data in the experiment with DRB1*0401 (DR4w4) of 0.0150. This sequence showed a DR4w15 binding data with DRB1*0405 (DR4w15) of -0.0014. The sequence also came in with a DR7 binding data with DRB1*0701 (DR7) of 0.0046. The same sequence registered a DR8w2 binding data with DRB1*0802 (DR8w2) of 0.0007. In addition, in the experiment with DRB1*1101 (DR5w11), the DR5w11 binding data is recorded as -0.0004. For the same sequence, the DR5w12 binding data with DRB1*1201 (DR5w12) is 0.0001. Moreover, in the experiment with DRB4*0101 (DRw53), the DRw53 binding data was -0.0010. The sequence further showed a DR2w2β2 binding data with DRB5*0101 (DR2w2β2) of 0.0096.
As to IVDELSEDI, in the experiment with DRB1*0101 (DR1) (setting [1]), the DR1 binding information worked out at 0.0001. The sequence further came in with a DR3 binding information with DRB1*0301 (DR3) (setting [1]) of -0.0041. In the experiment with DRB1*0401 (DR4w4) (setting [1]), the DR4w4 binding information was determined as 0.0027. In the experiment with DRB1*0405 (DR4w15) (setting [1]), this sequence yielded a DR4w15 binding information of 0.0017. The sequence further showed a DR7 binding information in the experiment with DRB1*0701 (DR7) of -0.0003. In addition, in the experiment with DRB1*0802 (DR8w2), the DR8w2 binding information was -0.0003. For the same sequence, the DR5w11 binding information with DRB1*1101 (DR5w11) is listed as -0.0002. In addition, the DR5w12 binding information with DRB1*1201 (DR5w12) was found to be 0.0001. The DRw53 binding information in the experiment with DRB4*0101 (DRw53) worked out at 0.0290. Also, in the experiment with DRB5*0101 (DR2w2β2), the DR2w2β2 binding information is listed as -0.0005.
Turning to VCNDEVDLY, the DR1 binding information with DRB1*0101 (DR1) (setting [1]) amounted to 0.0003. In addition, in the experiment with DRB1*0301 (DR3) (setting [1]), the DR3 binding information is listed as -0.0006. Moreover, the DR4w4 binding information with DRB1*0401 (DR4w4) (setting [1]) is given as -0.0014. In the experiment with DRB1*0405 (DR4w15) (setting [1]), the DR4w15 binding information is recorded as -0.0004. The DR7 binding information in the experiment with DRB1*0701 (DR7) was -0.0003. In the experiment with DRB1*0802 (DR8w2), the DR8w2 binding information is -0.0003. In addition, the DR5w11 binding information with DRB1*1101 (DR5w11) was 0.0001. In the experiment with DRB1*1501 (DR2w2β1) (setting [1]), the DR2w2β1 binding information is given as -0.0006. The sequence further returned a DRw53 binding information with DRB4*0101 (DRw53) of -0.0010. The same sequence had a DR2w2β2 binding information in the experiment with DRB5*0101 (DR2w2β2) of 0.1300.
As to IKNSEKDEI, the DR1 binding information with DRB1*0101 (DR1) (Malaria DR3b motif peptides) came to 0.0002. For the same sequence, in the experiment with DRB1*0301 (DR3) (Malaria DR3b motif peptides), the DR3 binding information is recorded as -0.0017. In the experiment with DRB1*0401 (DR4w4) (Malaria DR3b motif peptides), this sequence gave a DR4w4 binding information of 0.0030. In the experiment with DRB1*0405 (DR4w15) (Malaria DR3b motif peptides), the DR4w15 binding information is reported as -0.0010. The DR7 binding information with DRB1*0701 (DR7) is -0.0011. In the experiment with DRB1*0802 (DR8w2), the DR8w2 binding information is reported as -0.0007. The sequence also gave a DR5w11 binding information with DRB1*1101 (DR5w11) of -0.0003. The sequence also yielded a DR2w2β1 binding information in the experiment with DRB1*1501 (DR2w2β1) (Malaria DR3b motif peptides) of -0.0021. In addition, the DR2w2β2 binding information with DRB5*0101 (DR2w2β2) is given as -0.0160.
Take LTDGIPDSI: in the experiment with DRB1*0101 (DR1), the DR1 binding data is 0.0001. Further, the DR4w4 binding data with DRB1*0401 (DR4w4) amounted to 0.1200. For the same sequence, the DR4w15 binding data in the experiment with DRB1*0405 (DR4w15) was -0.0014. In addition, the DR7 binding data in the experiment with DRB1*0701 (DR7) is -0.0003. For the same sequence, in the experiment with DRB1*0802 (DR8w2), the DR8w2 binding data is listed as -0.0003. This sequence came in with a DR5w11 binding data with DRB1*1101 (DR5w11) of -0.0004. In addition, the DR5w12 binding data with DRB1*1201 (DR5w12) was 0.0001. The same sequence showed a DRw53 binding data in the experiment with DRB4*0101 (DRw53) of 0.0114. In the experiment with DRB5*0101 (DR2w2β2), the DR2w2β2 binding data is recorded as -0.0006.
